Test results from paper PMC4687731.

Key:
Test in all cases: EMSA
DMP1 ΔMHR = target: T1, DMP1 ΔMHR (human, UniProt Q9Y222 1-223)
T1 sequence: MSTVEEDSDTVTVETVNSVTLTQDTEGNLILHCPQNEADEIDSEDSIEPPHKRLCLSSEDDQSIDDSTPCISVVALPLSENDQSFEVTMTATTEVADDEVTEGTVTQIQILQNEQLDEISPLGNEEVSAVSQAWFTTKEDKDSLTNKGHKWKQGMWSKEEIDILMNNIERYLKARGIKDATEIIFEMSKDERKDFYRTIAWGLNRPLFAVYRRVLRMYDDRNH

DMP1β (DMTF1 isoform β) = target: T2, DMP1β (DMTF1 isoform β) (human, UniProt Q9Y222-2 1-272)
T2 sequence: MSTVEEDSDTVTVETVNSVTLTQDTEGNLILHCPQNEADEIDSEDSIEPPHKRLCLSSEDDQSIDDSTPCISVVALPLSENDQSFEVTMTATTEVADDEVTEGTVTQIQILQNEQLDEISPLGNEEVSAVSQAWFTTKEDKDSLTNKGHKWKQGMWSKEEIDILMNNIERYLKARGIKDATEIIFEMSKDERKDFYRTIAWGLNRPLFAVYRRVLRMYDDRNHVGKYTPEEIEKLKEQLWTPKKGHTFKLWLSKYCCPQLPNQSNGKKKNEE

DMP1γ (DMTF1 isoform γ) = target: T3, DMP1γ (DMTF1 isoform γ) (human, UniProt Q9Y222-3 1-285)
T3 sequence: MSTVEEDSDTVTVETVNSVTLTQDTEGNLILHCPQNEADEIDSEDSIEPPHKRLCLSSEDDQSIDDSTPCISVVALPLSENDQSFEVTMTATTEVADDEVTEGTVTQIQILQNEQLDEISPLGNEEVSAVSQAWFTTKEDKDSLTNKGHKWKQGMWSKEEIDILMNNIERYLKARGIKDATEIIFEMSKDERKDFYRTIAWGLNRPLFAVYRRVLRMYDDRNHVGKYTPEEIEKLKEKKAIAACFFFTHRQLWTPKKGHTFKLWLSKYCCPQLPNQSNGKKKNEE

DMP1α (DMTF1 isoform α) = target: T4, DMP1α (DMTF1 isoform α) (human, UniProt Q9Y222 1-760)
T4 sequence: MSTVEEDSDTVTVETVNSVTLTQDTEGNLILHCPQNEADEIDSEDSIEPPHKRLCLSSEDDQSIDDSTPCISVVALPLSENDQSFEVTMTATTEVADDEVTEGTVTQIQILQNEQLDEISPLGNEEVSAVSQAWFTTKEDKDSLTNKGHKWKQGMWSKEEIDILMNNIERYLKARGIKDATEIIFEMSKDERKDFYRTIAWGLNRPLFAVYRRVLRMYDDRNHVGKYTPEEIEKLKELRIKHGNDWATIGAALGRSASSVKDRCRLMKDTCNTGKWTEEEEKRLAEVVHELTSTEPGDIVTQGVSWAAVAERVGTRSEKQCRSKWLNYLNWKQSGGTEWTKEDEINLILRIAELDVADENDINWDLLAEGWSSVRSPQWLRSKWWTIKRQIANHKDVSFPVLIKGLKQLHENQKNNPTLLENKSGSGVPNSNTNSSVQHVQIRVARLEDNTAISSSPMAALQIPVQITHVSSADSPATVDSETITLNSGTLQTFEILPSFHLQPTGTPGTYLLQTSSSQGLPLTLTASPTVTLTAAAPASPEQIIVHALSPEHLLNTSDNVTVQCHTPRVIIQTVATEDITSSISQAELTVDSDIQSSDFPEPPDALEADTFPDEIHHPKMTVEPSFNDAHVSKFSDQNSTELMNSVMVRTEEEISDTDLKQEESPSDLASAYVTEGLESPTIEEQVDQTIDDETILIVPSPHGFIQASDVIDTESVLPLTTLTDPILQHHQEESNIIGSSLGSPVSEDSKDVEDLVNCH

B1: human ARF promoter DMP1 site probe (dsDNA)
DNA 1: GTCAGGTGACGGATGTAGCTAGG
DNA 2: CCTAGCTACATCCGTCACCTGAC
binding result (DMP1 ΔMHR): no binding | binding result (DMP1β (DMTF1 isoform β)): no binding | binding result (DMP1γ (DMTF1 isoform γ)): no binding | binding result (DMP1α (DMTF1 isoform α)): binds
